Measured values reported in patent publication US20250019427A1 (BYOMASS, published 2025).

Tests used:
[1] = target: T1, Rat GDF-15 Fc (rat, UniProt Q9Z0J6 189-303, limits assumed); assay: Octet BLI, IgG on AHC tip, avid
T1 sequence (looked up): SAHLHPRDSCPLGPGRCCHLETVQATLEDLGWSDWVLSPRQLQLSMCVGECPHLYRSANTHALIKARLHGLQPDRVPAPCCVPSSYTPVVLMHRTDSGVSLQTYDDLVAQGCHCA
Method: (§1) Briefly, ForteBio affinity measurements were performed by loading IgGs on-line onto AHC sensors. Sensors were equilibrated off-line in assay buffer for 30 min and then monitored on-line for 60 seconds for baseline establishment. Sensors with loaded IgGs were exposed to 100 nM antigen for 3 minutes, and afterwards were transferred to assay buffer for 3 min for off-rate measurement. All kinetics were analyzed using the 1:1 binding model.

[2] = target: T2, Cyno GDF15 Fc (cyno, UniProt G7PWZ3 193-308); assay: Octet BLI, IgG on AHC tip, avid
T2 construct: also called cyno GDF15-Fc fusion
T2 sequence: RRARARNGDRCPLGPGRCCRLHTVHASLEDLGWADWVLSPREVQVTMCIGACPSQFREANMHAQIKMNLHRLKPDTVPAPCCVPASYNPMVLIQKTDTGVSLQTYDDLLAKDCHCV
Method: as §1

[3] = target: T3, Mouse GDF15 Fc (mouse, UniProt Q9Z0J7 189-303, limits assumed); assay: Octet BLI, IgG on AHC tip, avid
T3 construct: also called mouse GDF15Fc fusion
T3 sequence (looked up): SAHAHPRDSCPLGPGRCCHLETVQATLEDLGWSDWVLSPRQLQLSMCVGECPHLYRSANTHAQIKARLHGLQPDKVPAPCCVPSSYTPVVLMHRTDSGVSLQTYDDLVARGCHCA
Method: as §1

[4] = target: T4, GDF15 (Homo sapiens (Human), UniProt Q99988 30-308); assay: cell-based or functional assay
T4 sequence: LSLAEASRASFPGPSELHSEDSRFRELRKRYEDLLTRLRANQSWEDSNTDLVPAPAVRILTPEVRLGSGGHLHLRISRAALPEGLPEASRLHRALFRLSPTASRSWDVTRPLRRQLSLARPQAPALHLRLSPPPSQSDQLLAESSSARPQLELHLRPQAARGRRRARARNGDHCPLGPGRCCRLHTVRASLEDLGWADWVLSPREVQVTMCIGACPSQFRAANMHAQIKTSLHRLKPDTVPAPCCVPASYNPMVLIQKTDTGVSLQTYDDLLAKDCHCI

[5] = target: T5, Human Activin A Fc (human, UniProt P08476 311-426); assay: Octet BLI, IgG on tip, avid
T5 sequence (looked up): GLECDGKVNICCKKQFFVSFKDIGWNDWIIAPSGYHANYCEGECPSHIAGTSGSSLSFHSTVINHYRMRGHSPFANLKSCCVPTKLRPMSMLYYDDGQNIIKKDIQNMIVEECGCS

[6] = target: T6, GDNF (UniProt P39905 78-211); assay: Octet BLI, IgG on tip, avid
T6 sequence (looked up): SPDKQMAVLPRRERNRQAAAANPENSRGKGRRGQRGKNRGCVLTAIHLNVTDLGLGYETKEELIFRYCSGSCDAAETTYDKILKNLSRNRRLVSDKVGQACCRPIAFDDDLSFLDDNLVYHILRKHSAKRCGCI

[7] = target: T7, GDF10 (UniProt P55107 369-478); assay: Octet BLI, IgG on tip, avid
T7 sequence (looked up): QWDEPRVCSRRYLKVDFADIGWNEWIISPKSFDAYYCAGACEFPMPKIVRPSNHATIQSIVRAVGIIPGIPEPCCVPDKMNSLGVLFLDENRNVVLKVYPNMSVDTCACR

[8] = target: T8, GDF11 (UniProt O95390 299-407); assay: Octet BLI, IgG on tip, avid
T8 construct: Also the GDF-11 ligand of the ActRIIB/SMAD reporter assay
T8 sequence (O95390 299-407 limits assumed): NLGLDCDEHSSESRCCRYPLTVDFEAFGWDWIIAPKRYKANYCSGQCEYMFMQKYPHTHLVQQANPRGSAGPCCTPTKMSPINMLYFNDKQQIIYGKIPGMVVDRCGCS

[9] = target: T9, Human BMP10 (human, UniProt O95393 317-424); assay: Octet BLI, IgG on tip, avid
T9 sequence (looked up): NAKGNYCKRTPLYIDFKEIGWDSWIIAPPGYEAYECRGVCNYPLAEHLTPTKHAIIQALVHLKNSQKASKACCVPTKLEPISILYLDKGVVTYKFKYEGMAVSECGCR

[10] = target: T10, Human Activin B (human, UniProt P09529 293-407); assay: Octet BLI, IgG on tip, avid
T10 construct: Also used for the Activin B ligand of the ActRIIB/SMAD reporter assay, where the species is not restated
T10 sequence (looked up): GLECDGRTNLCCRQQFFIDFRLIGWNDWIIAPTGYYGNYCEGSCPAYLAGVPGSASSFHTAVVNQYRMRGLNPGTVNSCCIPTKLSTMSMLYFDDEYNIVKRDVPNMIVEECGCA

[11] = target: T11, Human BMP9 (human, UniProt Q9UK05 320-429); assay: Octet BLI, IgG on tip, avid
T11 sequence (looked up): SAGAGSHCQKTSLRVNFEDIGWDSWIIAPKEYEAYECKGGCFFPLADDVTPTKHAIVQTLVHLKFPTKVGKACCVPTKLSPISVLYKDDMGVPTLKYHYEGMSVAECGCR

[12] = target: GDF8 (UniProt O14793 267-375); assay: Octet BLI, IgG on tip, avid
[13] = target: T11, Human BMP9; assay: Octet BLI, IgG on tip, avid; P.F. = binder with poor fit
[14] = target: T7, GDF10; assay: as above
[15] = target: T9, Human BMP10; assay: as above

B1: Clone E IgG (antibody, V domains shown)
VH: QVQLVQSGAEVKKPGASVKVSCKASGYTFTSYGINWVRQAPGQGLEWMGWITAYSGDTNYAQKLQGRVTMTTDTSTSTAYMELRSLRSDDTAVYYCARGPGQYADVDVWGQGTMVTVSS
VL: DIQMTQSPSSVSASVGDRVTITCRASQGISSWLAWYQQKPGKAPKLLIYAASSLQSGVPSRFSGSGSGTDFTLTISSLQPEDFATYYCQQANSFPITFGGGTKVEIKR
notes: IgG format
Question: What does the source list for B1?
Answer: Kd [1]: 0.451 nM; Kd [2]: 0.178 nM; Kd [3]: 0.194 nM; GDF15 - GFRAL RET pERK IC50 (pM) [4]: 35 pM; GDF15 - GFRAL-RET Luciferase IC50 (pM) [4]: 190 pM; binding result [5]: no binding (tested: 100 nM); binding result [6]: no binding (tested: 100 nM); binding result [7]: no binding (tested: 100 nM); binding result [8]: no binding (tested: 100 nM); binding result [9]: no binding (tested: 100 nM); binding result [10]: no binding (tested: 100 nM); binding result [11]: no binding (tested: 100 nM); binding result [12]: no binding (tested: 100 nM)

B2: Clone B IgG (antibody, V domains shown)
VH: QVQLQESGPGLVKPSQTLSLTCTVSGGSISSGGIYWTWIRQHPGKGLEWIGAIAYSGSTYYNPSLKSRVTISVDTSKNQFSLKLSSVTAADTAVYYCARGIEYQHFDYWGQGTLVTVSS
VL: not shown
notes: IgG format; AAGA mutation in the Fc region stated for the FcRn test; also called GDF15 antibody agent Clone B
Question: For B2, which Kd [1] is on record?
Answer: 0.621 nM

Question: What about the Kd [2] of the same binder?
Answer: 0.422 nM

Question: And the Kd [3]?
Answer: 0.358 nM

Question: And the “GDF15 - GFRAL RET pERK IC50 (pM)” value [4]?
Answer: 104 pM

Question: And the “GDF15 - GFRAL-RET Luciferase IC50 (pM)” value [4]?
Answer: 66.2 pM

Question: Does B2 bind [13]?
Answer: binds

Question: Does B2 bind [6]?
Answer: no binding (tested: 100 nM)

Question: Does B2 bind [7]?
Answer: no binding (tested: 100 nM)

Question: Does B2 bind [8]?
Answer: no binding (tested: 100 nM)

Question: What about the Kd [10] of the same binder?
Answer: 145 nM

Question: Does B2 bind [12]?
Answer: no binding (tested: 100 nM)

B3: Clone D IgG (antibody, V domains shown)
VH: QVQLQESGPGLVKPSQTLSLTCTVSGGSINSGGYYWTWIRQHPGKGLEWIGAIYYSGSTVYNPSLKSRVTISVDTSKNQFSLKLSSVTAADTAVYYCARGVEYQHFNEWGQGTLVTVSS
VL: not shown
notes: IgG format
Question: How did the Kd [1] turn out when B3 was run?
Answer: 0.467 nM

Question: What about the Kd [2] of the same binder?
Answer: 0.141 nM

Question: And the Kd [3]?
Answer: 0.299 nM

Question: And the “GDF15 - GFRAL RET pERK IC50 (pM)” value [4]?
Answer: 50.4 pM

Question: And the “GDF15 - GFRAL-RET Luciferase IC50 (pM)” value [4]?
Answer: 58.7 pM

Question: Does B3 bind [14]?
Answer: binds

Question: Does B3 bind [13]?
Answer: binds

Question: And the Kd [5]?
Answer: 7.87 nM

Question: Does B3 bind [6]?
Answer: no binding (tested: 100 nM)

Question: Does B3 bind [8]?
Answer: no binding (tested: 100 nM)

Question: Does B3 bind [9]?
Answer: no binding (tested: 100 nM)

Question: Does B3 bind [10]?
Answer: no binding (tested: 100 nM)

Question: Does B3 bind [12]?
Answer: no binding (tested: 100 nM)

B4: Clone R IgG (antibody, V domains shown)
VH: QVQLQESGPGLVKPSQTLSLTCTVSGGSISSGGIYWTWIRQHPGKGLEWIGAIAYSGSTYYNPSLESRVTISVDTSKNQFSLKLSSVTAADTAVYYCARGIEYQHFDYWGQGTLVTVSS
VL: not shown
notes: IgG format
Question: Does B4 bind [13]?
Answer: binds

Question: Does B4 bind [6]?
Answer: no binding (tested: 100 nM)

Question: Does B4 bind [7]?
Answer: no binding (tested: 100 nM)

Question: Does B4 bind [8]?
Answer: no binding (tested: 100 nM)

Question: What about the Kd [10] of the same binder?
Answer: 188 nM

Question: Does B4 bind [12]?
Answer: no binding (tested: 100 nM)

B5: Clone C IgG (antibody, V domains shown)
VH: QVQLQESGPGLVKPSQTLSLTCTVSGGSISSGGYYWSWIRQHPGKGLEWIGAIVYSGHTYYNPSLKSRVTISVDTSKNQFSLKLSSVTAADTAVYYCARGVEYQHFSLWGQGTLVTVSS
VL: not shown
notes: IgG format; AAGA mutation in the Fc region stated for the FcRn test; also called GDF15 antibody agent Clone C
Question: Which results are given for B5?
Answer: Kd [1]: 0.437 nM; Kd [2]: 0.0862 nM; Kd [3]: 0.331 nM; GDF15 - GFRAL RET pERK IC50 (pM) [4]: 145 pM; GDF15 - GFRAL-RET Luciferase IC50 (pM) [4]: 39.6 pM; binding result [13]: binds; Kd [5]: 6.48 nM; binding result [6]: no binding (tested: 100 nM); binding result [8]: no binding (tested: 100 nM); binding result [9]: no binding (tested: 100 nM); Kd [10]: 132 nM; binding result [12]: no binding (tested: 100 nM)

B6: Clone Q IgG (antibody, V domains shown)
VH: QVQLQESGPGLVKPSQTLSLTCTVSGGSISSGGIYWTWIRQHPGKGLEWIGAIAYSGSTYYNPSLKSRVTISVDTSKNQFSLKLSSVTAADTAVYYCARGIEYQHFDYWGQGTLVTVSS
VL: not shown
notes: IgG format
Question: Does B6 bind [13]?
Answer: binds

Question: Does B6 bind [6]?
Answer: no binding (tested: 100 nM)

Question: Does B6 bind [7]?
Answer: no binding (tested: 100 nM)

Question: Does B6 bind [8]?
Answer: no binding (tested: 100 nM)

Question: Does B6 bind [9]?
Answer: no binding (tested: 100 nM)

Question: What about the Kd [10] of the same binder?
Answer: 172 nM

Question: Does B6 bind [12]?
Answer: no binding (tested: 100 nM)

B7: Clone N IgG (antibody, V domains shown)
VH: QVQLVQSGAEVKKPGASVKVSCKASGYTFTDYGIFWVRQAPGQGLEWMGWITAYSGDTHYAQKLQGRVTMTTDTSTSTAYMELRSLRSDDTAVYYCVRDTQYGGSPYWGQGTLVTVSS
VL: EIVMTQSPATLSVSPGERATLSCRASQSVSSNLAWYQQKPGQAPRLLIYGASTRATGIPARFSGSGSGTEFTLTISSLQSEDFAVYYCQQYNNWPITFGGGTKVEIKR
notes: IgG format
Question: Which results are given for B7?
Answer: Kd [1]: 0.358 nM; Kd [2]: 0.219 nM; Kd [3]: 0.219 nM; GDF15 - GFRAL RET pERK IC50 (pM) [4]: 99.7 pM; binding result [5]: no binding (tested: 100 nM); Kd [6]: 2.56 nM; binding result [7]: no binding (tested: 100 nM); binding result [8]: no binding (tested: 100 nM); binding result [9]: no binding (tested: 100 nM); binding result [10]: no binding (tested: 100 nM); binding result [11]: no binding (tested: 100 nM); binding result [12]: no binding (tested: 100 nM)

B8: Clone G IgG (antibody, V domains shown)
VH: QVQLVQSGAEVKKPGSSVKVSCKASGGTFQGYAISWARQAPGQGLEWMGGIIPPYATANYAQKFQGRVTITADESTSTAYMELSSLRSEDTAVYYCARGVGELHLDVWGQGTMVTVSS
VL: not shown
notes: IgG format
Question: For B8, which Kd [1] is on record?
Answer: 1.01 nM

Question: And the Kd [2]?
Answer: 0.107 nM

Question: What about the Kd [3] of the same binder?
Answer: 0.191 nM

Question: And the “GDF15 - GFRAL RET pERK IC50 (pM)” value [4]?
Answer: 66.7 pM

Question: And the “GDF15 - GFRAL-RET Luciferase IC50 (pM)” value [4]?
Answer: 97.1 pM

Question: Does B8 bind [15]?
Answer: binds

Question: Does B8 bind [13]?
Answer: binds

Question: Does B8 bind [5]?
Answer: no binding (tested: 100 nM)

Question: Does B8 bind [6]?
Answer: no binding (tested: 100 nM)

Question: What about the Kd [7] of the same binder?
Answer: 36.8 nM

Question: Does B8 bind [8]?
Answer: no binding (tested: 100 nM)

Question: Does B8 bind [10]?
Answer: no binding (tested: 100 nM)

Question: Does B8 bind [12]?
Answer: no binding (tested: 100 nM)
